Data: US20110065176A1 (PHARMABCINE, published 2011)

Molecular target: T1, KDR (VEGFR-2) expressed on the cell surface (human, UniProt P35968 20-1356)
T1 construct: whole, on cells; also called endogenous human KDR; KDR of HUVEC cells
Experiment: FACS on HUVEC cells pretreated with 20 ng/ml VEGF, against IMC-1C11 IgG

T1 sequence (P35968 20-1356): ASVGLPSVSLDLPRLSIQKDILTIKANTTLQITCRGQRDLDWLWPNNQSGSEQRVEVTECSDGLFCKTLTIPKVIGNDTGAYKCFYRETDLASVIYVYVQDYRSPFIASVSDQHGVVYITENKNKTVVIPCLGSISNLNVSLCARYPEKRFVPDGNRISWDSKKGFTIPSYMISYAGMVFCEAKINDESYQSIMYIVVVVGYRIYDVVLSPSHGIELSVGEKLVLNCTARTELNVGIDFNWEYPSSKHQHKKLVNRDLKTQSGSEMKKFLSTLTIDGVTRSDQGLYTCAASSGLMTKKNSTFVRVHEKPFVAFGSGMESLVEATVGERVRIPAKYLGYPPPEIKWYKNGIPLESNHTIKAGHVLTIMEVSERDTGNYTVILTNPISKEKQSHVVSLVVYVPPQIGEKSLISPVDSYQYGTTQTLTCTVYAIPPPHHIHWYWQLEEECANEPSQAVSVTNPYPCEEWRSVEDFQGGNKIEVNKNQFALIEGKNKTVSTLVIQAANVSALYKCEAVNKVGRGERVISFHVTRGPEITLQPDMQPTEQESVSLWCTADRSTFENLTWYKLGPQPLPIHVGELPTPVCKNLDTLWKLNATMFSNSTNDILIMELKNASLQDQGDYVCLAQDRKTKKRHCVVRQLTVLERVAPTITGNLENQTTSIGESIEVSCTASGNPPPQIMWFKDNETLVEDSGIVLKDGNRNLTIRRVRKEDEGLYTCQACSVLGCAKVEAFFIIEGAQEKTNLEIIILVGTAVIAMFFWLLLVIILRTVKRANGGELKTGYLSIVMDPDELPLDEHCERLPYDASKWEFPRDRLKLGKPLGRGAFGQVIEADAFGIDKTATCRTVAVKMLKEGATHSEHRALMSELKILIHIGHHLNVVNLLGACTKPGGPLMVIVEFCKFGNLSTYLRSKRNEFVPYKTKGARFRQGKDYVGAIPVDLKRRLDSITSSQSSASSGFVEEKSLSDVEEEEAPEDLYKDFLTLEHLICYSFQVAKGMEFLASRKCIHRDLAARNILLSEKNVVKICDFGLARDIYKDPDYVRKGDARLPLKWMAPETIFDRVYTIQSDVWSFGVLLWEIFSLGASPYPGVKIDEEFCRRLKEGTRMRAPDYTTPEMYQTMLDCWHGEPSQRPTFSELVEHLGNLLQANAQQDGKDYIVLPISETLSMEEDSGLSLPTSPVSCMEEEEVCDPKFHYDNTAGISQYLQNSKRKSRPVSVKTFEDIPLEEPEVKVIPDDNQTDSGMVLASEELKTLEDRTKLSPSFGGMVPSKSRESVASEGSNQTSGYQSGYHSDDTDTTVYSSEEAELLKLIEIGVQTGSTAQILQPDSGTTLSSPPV

fold higher KDR neutralizing ability than IMC-1C11 IgG: ~2 fold
B1: 6A6 IgG (antibody, V domains shown)
VH: QMQLVQSGAEVKKPGASVKLSCKASGYTFSSYWMHWVRQAPGQRLEWMGEINPGNGHTNYNEKFKSRVTITVDKSASTAYMELSSLRSEDTAVYYCAKIWGPSLTSPFDYWGQGTLVTVSS
VL: SNFMLTQPPSVSVSPGKTARITCRGDNLGDVNVHWYQQRPGQAPVLVMYYDADRPSGIPERFSGSNSGNTATLTISGVEAGDEADYYCQVWDRTSEYVFGTGTKVTVLG
notes: Whole human IgG expressed in CHO DG44 cells; also called 6A6 antibody; anti-KDR 6A6 IgG
